This test deals with Sulfolobus solfataricus heat shock 20.1 (Sulfolobus solfataricus P2). Put plainly: SEC.

“Sulfolobus solfataricus heat shock 20.1 (natural protein)” returned a stoichiometry N of 24 subunits.

Values taken from PMC4359974.
